Patent US20210300992A1 (Stanford University, published 2021)
Positions count from the first letter of the chain named. Names may count otherwise.

B1: LIFR CBMI-Ig-like-CBMII (VPRVVAID)-gp130 CBM (ELDME) heterodimeric Fc fusion (Fc fusion)
chain 1: QKKGAPHDLKCVTNNLQVWNCSWKAPSGTGRGTDYEVCIENRSRSCYQLEKTSIKIPALSHGDYEITINSLHDFGSSTSKFTLNEQNVSLIPDTPEILNLSADFSTSTLYLKWNDRGSVFPHRSNVIWEIKVLRKESMELVKLVTHNTTLNGKDTLHHWSWASDMPLECAIHFVEIRCYIDNLHFSGLEEWSDWSPVKNISWIPDSQTKVFPQDKVVPVGSDITFCCVSQEKVLSALIGRTDCPLIHLDGENVAIKVRNVSASASSGTNVVFITEDDIFGTVIFAGYPPDTPQQLNCETHDLKEIICSWNPGRVTALVGPRATSYTLVESFSGKYVRLKRAEAPTNESYQLLFQMLPNQEIYNFTLNAHNPLGRSQSTILVNITEKVYPHTPTSFKVKDINSTAVKLSWHLPGNFAKINFLCEIEIKKSNSVQEQRNVTIKGVENSSYLVALDKLNPYTLYTFRIRCSTETFWKWSKWSNKKQHLTTEASGSGSGSDKTHTCPPCPAPELLGGPSVFLFPPKPKDTLMISRTPEVTCVVVDVSHEDPQVKFNWYVDGVQVHNAKTKPREQQYNSTYRVVSVLTVLHQNWLDGKEYKCKVSNKALPAPIEKTISKAKGQPREPQVYTLPPSREEMTKNQVSLWCLVKGFYPSDIAVEWESNGQPENNYKTTPPVLDSDGSFFLYSKLTVDKSRWQQGNVFSCSVMHEALHNHYTQKSLSLSPGK
chain 2: LPPEKPKNLSCIVNEGKKMRCEWDRGRETHLETNFTLKSEWATHELADCKAKRDTPTSCTVDYSTVYFVNIEVWVEAENALGKVTSDHINFDPVDKVKPNPPHNLSVINSEELSSILKLTWTNPSIKSVMILKYNIQYRTKDASTWSQIPPEDTASTRSSFTVQDLKPFTEYVFRIRCMKEDGEGYWSDWSEEASGITYEDGSGSGSDKTHTCPPCPAPELLGGPSVFLFPPKPKDTLMISRTPEVTCVVVDVSHEDPQVKFNWYVDGVQVHNAKTKPREQQYNSTYRVVSVLTVLHQNWLDGKEYKCKVSNKALPAPIEKTISKAKGQPREPQVYTLPPSREEMTKNQVSLSCAVKGFYPSDIAVEWESNGQPENNYKTTPPVLDSDGSFFLVSKLTVDKSRWQQGNVFSCSVMHEALHNHYTQKSLSLSPGK
notes: also called LIFR-gp130 heterodimeric Fc; LIFR-gp130 Heterodimeric Fc (Eng.)
B2: human leukemia inhibitory factor (LIF), soluble (ligand)
chain: not shown
notes: also called human LIF; soluble human LIF
B3: wild-type human gp130 CBM domain displayed on the surface of yeast (receptor)
chain: LPPEKPKNLSCIVNEGKKMRCEWDRGRETHLETNFTLKSEWATHKFADCKAKRDTPTSCTVDYSTVYFVNIEVWVEAENALGKVTSDHINFDPVYKVKPNPPHNLSVINSEELSSILKLTWTNPSIKSVIILKYNIQYRTKDASTWSQIPPEDTASTRSSFTVQDLKPFTEYVFRIRCMKEDGKGYWSDWSEEASGITYED
notes: also called gp130 wild-type (WT); wild-type gp130
B4: EDE (receptor)
yeast-displayed receptor fragment: B3 chain with K45E, Y95D, K184E
notes: 3 mutations, all marked
B5: ELRDM (receptor)
yeast-displayed receptor fragment: B3 chain with K45E, F46L, K83R, Y95D, I130M
notes: 5 mutations, all marked
B6: 8M (receptor)
yeast-displayed receptor fragment: B3 chain with E4K, K5R, N14D, K45E, F46L, K83R, Y95D, N100S
notes: 8 mutations, all marked; also called 8M (Rnd 1); E4K-K5R-N14D-K45E-F46L-K83R-Y95D-N100S
B7: ELDSM (receptor)
yeast-displayed receptor fragment: B3 chain with K45E, F46L, Y95D, N100S, I130M
notes: 5 mutations, all marked
B8: wild-type human LIFR displayed on the surface of yeast (receptor)
chain: QKKGAPHDLKCVTNNLQVWNCSWKAPSGTGRGTDYEVCIENRSRSCYQLEKTSIKIPALSHGDYEITINSLHDFGSSTSKFTLNEQNVSLIPDTPEILNLSADFSTSTLYLKWNDRGSVFPHRSNVIWEIKVLRKESMELVKLVTHNTTLNGKDTLHHWSWASDMPLECAIHFVEIRCYIDNLHFSGLEEWSDWSPVKNISWIPDSQTKVFPQDKVILVGSDITFCCVSQEKVLSALIGHTNCPLIHLDGENVAIKIRNISVSASSGTNVVFTTEDNIFGTVIFAGYPPDTPQQLNCETHDLKEIICSWNPGRVTALVGPRATSYTLVESFSGKYVRLKRAEAPTNESYQLLFQMLPNQEIYNFTLNAHNPLGRSQSTILVNITEKVYPHTPTSFKVKDINSTAVKLSWHLPGNFAKINFLCEIEIKKSNSVQEQRNVTIKGVENSSYLVALDKLNPYTLYTFRIRCSTETFWKWSKWSNKKQHLTTEAS
notes: also called LIFR wild-type (WT); wild-type LIFR
B9: LIFR CBMI-Ig-like-CBMII wild-type Fc fusion homodimer (Fc fusion)
chain: B8 chain
notes: Homodimer through the Fc; The engineered counterparts use a 3x GS linker and a human IgG1 Fc; also called LIFR-WT-Fc; LIFR WT Fc; not shown: linker and Fc domain
B10: PID (receptor)
yeast-displayed receptor fragment: B8 chain with L218P, I260V, T273I, N277D
B11: PVAID (receptor)
yeast-displayed receptor fragment: B8 chain with L218P, I257V, V262A, T273I, N277D
notes: 5 mutations, all marked
B12: PRVAID (receptor)
yeast-displayed receptor fragment: B8 chain with L218P, H240R, I257V, V262A, T273I, N277D
B13: VPSID (receptor)
yeast-displayed receptor fragment: B8 chain with I217V, L218P, N242S, T273I, N277D
notes: 5 mutations, all marked
B14: PSVID (receptor)
yeast-displayed receptor fragment: B8 chain with L218P, N242S, I260V, T273I, N277D
notes: 5 mutations, all marked
B15: PAID (receptor)
yeast-displayed receptor fragment: B8 chain with L218P, V262A, T273I, N277D
notes: 4 mutations, all marked
B16: VPDAID (receptor)
yeast-displayed receptor fragment: B8 chain with I217V, L218P, N242D, V262A, T273I, N277D
notes: 6 mutations, all marked

Experiments:
[1] = biological target: B3; assay: yeast-displayed receptor, no LIF added, anti-Fc detection by flow cytometry
[2] = biological target: B8; assay: as above
[3] = biological target: B9; assay: KinExA with soluble human LIF; KD calculated by the KinExA software
Procedure: (§1) Binding of the purified LIF inhibitors to soluble LIF was tested using KinExA. Shown in FIG. 10 are binding results for: (1) a homodimer having a WT LIFR CBMI-Ig-like-CBMII Fc fusion as each monomer; (2) a homodimer having LIFR […] Fc as each monomer;

[4] = biological target: B2; assay: yeast surface display, flow cytometry; Score column of the table of sorted gp130 CBM variants (the filing gives 100 pM and 1 nM human LIF for the gp130 binding scores)
[5] = biological target: B2; assay: yeast surface display, flow cytometry; soluble human LIF titrated (0.01 to 1000 nM), detected with a fluorescent antibody
Procedure: (§2) Binding to human LIF was measured via fluorescent antibody detection using flow cytometry.
Results for gp130 wild-type (WT) (circles), the “8M” variant (E4K-K5R-N14D-K45E-F46L-K83R-Y95D-N100S) (squares), and the ELDME variant (mutations in FIG. 4, panel A) (triangles) are shown.

[6] = biological target: B2; assay: yeast surface display, flow cytometry; score from summed fluorescence at 10 pM and 100 pM human LIF, normalized to wild-type and to expression
[7] = biological target: B2; assay: yeast surface display, flow cytometry; soluble human LIF titrated (0.001 to 100 nM), detected with a fluorescent antibody
Procedure: as §2
Results for LIFR wild-type (WT) (circles), the “PDD” variant (L218P-N42D-N277D) (squares), and the […] variant (mutations in FIG. 4, panel A) (triangles) are shown.

[8] = biological target: B2; assay: KinExA with soluble human LIF; inhibitor titrated
Procedure: as §1

Row | Score (binding score) [4] | Score (normalized binding score) [6] | Binder | other results
1 | – | – | B1 | binding result [1]: no binding; binding result [2]: no binding
2 | – | – | B2 | Kd [3]: 1.09 nM
3 | 1.03 | – | B3 | –
4 | 23 | – | B4 | –
5 | 22.1 | – | B5 | –
6 | 16 | – | B6 | EC50 (read off the curve) [5]: ~10 nM
7 | 21.9 | – | B7 | –
8 | – | 1.32 | B8 | EC50 (read off the curve) [7]: ~1 nM
9 | – | – | B9 | EC50 (read off the curve) [8]: ~1 nM
10 | – | 12.2 | B10 | –
11 | – | 15.6 | B11 | –
12 | – | 16.9 | B12 | –
13 | – | 13.2 | B13 | –
14 | – | 13.4 | B14 | –
15 | – | 13.3 | B15 | –
16 | – | 14.4 | B16 | –
